T1: recombinant human IL-23 (hrIL-23), produced at Centocor (human, UniProt P29460 23-328)
T1 sequence 1: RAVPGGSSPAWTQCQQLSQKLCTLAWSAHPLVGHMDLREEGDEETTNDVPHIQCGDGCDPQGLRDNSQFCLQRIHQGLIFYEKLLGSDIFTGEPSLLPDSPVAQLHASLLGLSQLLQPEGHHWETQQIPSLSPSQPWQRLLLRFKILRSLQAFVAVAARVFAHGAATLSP
T1 sequence 2: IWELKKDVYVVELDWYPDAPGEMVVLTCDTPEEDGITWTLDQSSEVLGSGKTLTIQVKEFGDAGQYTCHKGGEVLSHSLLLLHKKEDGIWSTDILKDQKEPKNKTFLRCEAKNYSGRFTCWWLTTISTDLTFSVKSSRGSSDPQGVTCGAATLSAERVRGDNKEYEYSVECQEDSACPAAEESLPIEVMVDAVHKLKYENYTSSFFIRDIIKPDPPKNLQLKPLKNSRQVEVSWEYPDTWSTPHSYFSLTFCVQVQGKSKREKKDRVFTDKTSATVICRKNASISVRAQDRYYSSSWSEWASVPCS

B1: mAb MOR05046 (antibody, IgG1, V domains shown)
VH: QVELVQSGAEVKKPGESLKISCKGSGYSFSNYWIGWVRQMPGKGLEWMGIIDPSTYSPSFQGQVTISADKSISTAYLQWSSLKASDTAMYYCARWYYKPFDVWGQGTLVTVSS
VL: DIVLTQPPSVSGAPGQRVTISCTGSSSNIGSGYDVHWYQQLPGTAPKLLIYGNSKRPSGVPDRFSGSKSGTSASLAITGLQSEDEADYYCSSWTPSSVVFGGGTKLTVL
B2: mAb MOR05029 (antibody, IgG1, V domains shown)
VH: QVELVQSGAEVKKPGSSVKVSCKASGGTFSSNYISWVRQAPGQGLEWMGGIIPIFGHANYAQKFQGRVTITADESTSTAYMELSSLRSEDTAVYYCARSKKGMYGGWTYPLMMFDLWGQGTLVTVSS
VL: DIVLTQSPATLSLSPGERATLSCRASQSVSSNYLAWYQQKPGQAPRLLIYYASRRATGVPARFSGSGSGTDFTLTISSLEPEDFAYYCQQTFGQGTKVEIK
B3: mAb MOR05030 (antibody, IgG1, V domains shown)
VH: QVELVQSGAEVKKPGSSVKVSCKASGGTFSSNYISWVRQAPGQGLEWMGGIIPIFGHANYAQKFQGRVTITADESTSTAYMELSSLRSEDTAVYYCARSKKGMYGGWTYPLMMFDLWGQGTLVTVSS
VL: DIVLTQSPATLSLSPGERATLSCRASQSVSSNYLAWYQQKPGQAPRLLIYYASRRATGVPARFSGSGSGTDFTLTISSLEPEDFAYYCQQPFTFGQGTKVEIK
B4: mAb MOR05038 (antibody, IgG1, V domains shown)
VH: QVELVQSGAEVKKPGSSVKVSCKASGGTFSSNYISWVRQAPGQGLEWMGIGYAQKFQGRVTITADESTSTAYMELSSLRSEDTAVYYCARSKKGMYGGWTYPLMMFDLWGQGTLVTVSS
VL: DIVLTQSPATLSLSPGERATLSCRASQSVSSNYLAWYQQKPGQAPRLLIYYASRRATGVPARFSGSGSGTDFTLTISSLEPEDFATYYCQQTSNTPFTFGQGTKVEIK
B5: mAb MOR05049 (antibody, IgG1, V domains shown)
VH: QVELVESGGGLVQPGGSLRLSCAASGFTFSSFGMSWVRQAPGKGLEWVSITYASVKGRFTISRDNSKNTLYLQMNSLRAEDTAVYYCARYWGTPYLMQFDNWGQGTLVTVSS
VL: DIALTQPASVSGSPGQSITISCTGTSSDVGGYNSVSWYQQHPGKAPKLMIYSVSSRPSGVSNRFSGSKSGNTASLTISGLQAEDEADYYCSSYDTNKPLVVFGGGTKLTVL
B6: mAb MOR05050 (antibody, IgG1, V domains shown)
VH: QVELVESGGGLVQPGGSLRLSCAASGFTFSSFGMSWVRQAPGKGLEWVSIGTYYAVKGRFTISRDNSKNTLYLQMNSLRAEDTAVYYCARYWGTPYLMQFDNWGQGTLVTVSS
VL: DIALTQPASVSGSPGQSITISCTGTSSDVGGYNSVSWYQQHPGKAPKLMIYSVSSRPSGVSNRFSGSKSGNTASLTISGLQAEDEADYYCSSYDTNKPLVVFGGGTKLTVL
B7: mAb MOR05047 (antibody, IgG1, V domains shown)
VH: QVELVESGGGLVQPGGSLRLSCAASGFTFSSFGMSWVRQAPGKGLEWVSNIGTYASVKGRFTISRDNSKNTLYLQMNSLRAEDTAVYYCARYWGTPYLMQFDNWGQGTLVTVSS
VL: DIALTQPASVSGSPGQSITISCTGTSSDVGGYNSVSWYQQHPGKAPKLMIYSVSSRPSGVSNRFSGSKSGNTASLTISGLQAEDEADYYCSSYDTNKPLVVFGGGTKLTVL
B8: mAb MOR05052 (antibody, IgG1, V domains shown)
VH: QVELVESGGGLVQPGGSLRLSCAASGFTFSSFGMSWVRQAPGKGLEWVSITYASVKGRFTISRDNSKNTLYLQMNSLRAEDTAVYYCARYWGTPYLMQFDNWGQGTLVTVSS
VL: DIALTQPASVSGSPGQSITISCTGTSSDVGGYNSVSWYQQHPGKAPKLMIYSVSSRPSGVSNRFSGSKSGNTASLTISGLQAEDEADYYCSSYDTNKPLVVFGGGTKLTVL
B9: mAb MOR05048 (antibody, IgG1, V domains shown)
VH: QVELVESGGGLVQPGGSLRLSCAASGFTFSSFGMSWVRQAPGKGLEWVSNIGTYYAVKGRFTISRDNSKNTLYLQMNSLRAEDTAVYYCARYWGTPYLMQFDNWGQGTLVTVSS
VL: DIALTQPASVSGSPGQSITISCTGTSSDVGGYNSVSWYQQHPGKAPKLMIYSVSSRPSGVSNRFSGSKSGNTASLTISGLQAEDEADYYCSSYDTNKPLVVFGGGTKLTVL

For this experiment, the target named is T1, recombinant human IL-23 (hrIL-23), …. The experiment can be described thus: cell-based or functional assay.
Regarding B1, the “Inhibition of IL-17 production, IC50” value was 0.0428 µg/mL.
As to B2, the “Inhibition of IL-17 production, IC50” value worked out at 0.0491 µg/mL.
With B3, the “Inhibition of IL-17 production, IC50” value came out at 0.0646 µg/mL.
For the molecule B4, the “Inhibition of IL-17 production, IC50” value is 0.0282 µg/mL.
In the case of B5 it was 0.0162 µg/mL; in that of B6, 0.0277 µg/mL; in that of B7, 0.0234 µg/mL.
To B8 belongs 0.0178 µg/mL; to B9, 0.0162 µg/mL.

These data come from patent US20070218064A1 (published 2007).
